By stoichiometry N is commonly meant a count of units in the complex or per binding partner.

The assay addresses Gallus gallus laforin (Gallus gallus) (UniProt Q5ZL46). Put plainly: SEC; first pass over a HiLoad 16/60 Superdex 200 column after IMAC and tag removal; buffer C (20 mM Tris/HCl pH 7.5, 100 mM NaCl, 2 mM DTT); multimer peak, dimer and monomer species seen. For orientation: Size exclusion chromatography separates by hydrodynamic size, large species first.

“Gallus gallus laforin (from UniProt Q5ZL46 1-319) (enzyme)” returned a stoichiometry N of 2.

Source of the values: publication PMC4234410.
